Reference: PMC9922763

Target: synthetic IAPP, used as monomer and as sonicated preformed fibrils (seeds) (UniProt P10997)

Chain of synthetic IAPP, used as monomer and as sonicated preformed fibrils (seeds) (from UniProt P10997 34-70) (peptide) (P10997 34-70): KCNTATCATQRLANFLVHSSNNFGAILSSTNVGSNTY

lag phase of ThT fibril formation of 2.5 µM monomeric IAPP after adding IAPP seeds corresponding to 100 nM monomeric peptide (240 min without seeds); PBS pH 7.4, 37°C: 20 min
Substance: synthetic IAPP, used as monomer and as sonicated preformed fibrils (seeds) (from UniProt P10997 34-70) (peptide)
